According to article PMC10156792, “The structure and evolutionary diversity of the fungal E3-binding protein” (Communications Biology, 2023):
Values belong to the molecule of their own block, whether it stands above or below them.

What was measured:
[1] = molecular target: N.crassa E3-binding protein in the native pyruvate dehydrogenase complex (N.crassa); experiment: cryo-EM structure; native PDC data EMPIAR-10489 reprocessed; symmetry-expanded consensus alignments only, C3 symmetry, 4.1 Å
[2] = molecular target: the molecule itself; experiment: cryo-EM structure; recombinant co-expressed CTD:CBD sub-complex (tE2/PX261); symmetry expansion, signal subtraction and classification of E2 trimers, C3 symmetry, 3.2 Å

stoichiometry N [1]: 3
Molecule: N.crassa E3-binding protein in the native pyruvate dehydrogenase complex (natural protein)

B1: N.crassa E2 C-terminal catalytic transacetylase domain (residues 225-458) (domain or fragment, UniProt P20285 225-458, looked up)
chain: AAYTDVPISGMRKTIAARLKESVTENPHFFVSTNLSVSKLLKLRQALNSSADGRYKLSVNDFLIKAMGIASKRVPTVNSSWRDGVIRQFETVDVSVAVATPNGLITPIVKGVEGKGLESISAAVKELAKKARDGKLKPEEYQGGSISISNMGMNPAVQSFTAIINPPQAAILAVGAPQKVAVPVENEDGTTGVSWDEQIIVTASFDHKVVDGAVGAEWIRELKKVIENPLELLL
notes: Forms trimers that assemble into the icosahedral PDC core; also called E2 CTD; CTD; source: E. coli Rosetta2 (DE3), co-expressed with his-tagged E3BP 261-426 from the petDuet vector, purified (Ni-NTA, SEC)
binding result [2]: binds

B2: N.crassa E3-binding protein core-binding domain (residues 261-426), his-tagged (domain or fragment, UniProt Q7RWS2 261-426, looked up)
chain: PAPPPVAVVTAPISLSAAIDVQNKLHKTIGVFLPLSTFITRATEIANQKLPLPANYQPTADELFNQVLGLDKVTRKESRGSYTPTFGSFVAPQRAARKADIIDILAAPSTRVAASAQSKSAAPGLTTSGPNVFSLQVPKSEEKRAQAFLQKMKLVLEQEPDKLVRA
notes: residues 265-346 and 390-425 were built; Trimer inside the E2 core by the cryo-EM reconstruction; also called E3BP CBD; CBD; source: E. coli Rosetta2 (DE3), co-expressed with E2 225-458 from the petDuet vector, purified (Ni-NTA, SEC)
stoichiometry N [2]: 3
